Source: patent publication US20130053541A1, “METHODS FOR DISCOVERING MOLECULES THAT BIND TO PROTEINS” (LYNNTECH, INC., priority 2011, published 2013)
Where no end group is shown, it is not given here.

B1: FYNMYLLN (peptide)
peptide: Ac-FYNMYLLN
B2: VLLHYGLY (peptide)
peptide: Ac-VLLHYGLY
B3: FWKGHFDF (peptide)
peptide: Ac-FWKGHFDF
B4: LYLLKHHP (peptide)
peptide: Ac-LYLLKHHP
B5: IFSYVRVY (peptide)
peptide: Ac-IFSYVRVY
B6: IFSYPRVY (peptide)
peptide: Ac-IFSYPRVY
B7: IKQNHNNS (peptide)
peptide: Ac-IKQNHNNS
B8: IKQDHNNS (peptide)
peptide: Ac-IKQDHNNS
B9: IFSEIRVY (peptide)
peptide: Ac-IFSEIRVY
B10: IFSEMRVY (peptide)
peptide: Ac-IFSEMRVY
B11: IFSKIRVY (peptide)
peptide: Ac-IFSKIRVY
B12: ANNIRLLH (peptide)
peptide: Ac-ANNIRLLH
B13: ANNVRLLH (peptide)
peptide: Ac-ANNVRLLH
B14: ANNLRLLH (peptide)
peptide: Ac-ANNLRLLH
B15: NIKLFANN (peptide)
peptide: Ac-NIKLFANN
B16: QYPKMQRL (peptide)
peptide: Ac-QYPKMQRL
B17: NSLRKHLL (peptide)
peptide: Ac-NSLRKHLL
B18: NSLLKHLL (peptide)
peptide: Ac-NSLLKHLL
B19: NSLKKHLL (peptide)
peptide: Ac-NSLKKHLL
B20: SLLFHLLK (peptide)
peptide: Ac-SLLFHLLK
B21: AIRLFLMG (peptide)
peptide: Ac-AIRLFLMG
B22: VQYNYLQR (peptide)
peptide: Ac-VQYNYLQR
B23: NNSWRLHL (peptide)
peptide: Ac-NNSWRLHL
B24: LHLKGSQT (peptide)
peptide: Ac-LHLKGSQT
B25: LLHLQKSQ (peptide)
peptide: Ac-LLHLQKSQ
B26: RKALVGKY (peptide)
peptide: Ac-RKALVGKY
B27: ANNLWLLH (peptide)
peptide: Ac-ANNLWLLH
B28: ANNVSLLH (peptide)
peptide: Ac-ANNVSLLH
B29: ANNSQLLH (peptide)
peptide: Ac-ANNSQLLH
B30: ANNSWLLH (peptide)
peptide: Ac-ANNSWLLH
B31: ANNLQLLH (peptide)
peptide: Ac-ANNLQLLH
B32: ANNSSLLH (peptide)
peptide: Ac-ANNSSLLH
B33: ANNSKLLH (peptide)
peptide: Ac-ANNSKLLH
B34: ANNLKLLH (peptide)
peptide: Ac-ANNLKLLH
B35: ANNVKLLH (peptide)
peptide: Ac-ANNVKLLH
B36: ANNVLLLH (peptide)
peptide: Ac-ANNVLLLH
B37: ANNLSLLH (peptide)
peptide: Ac-ANNLSLLH
B38: ANNIWLLH (peptide)
peptide: Ac-ANNIWLLH
B39: RKAIFGKY (peptide)
peptide: Ac-RKAIFGKY
B40: KSLLQQLL (peptide)
peptide: Ac-KSLLQQLL
B41: NIKVHANN (peptide)
peptide: Ac-NIKVHANN
B42: AANMLLLL (peptide)
peptide: Ac-AANMLLLL
B43: AANNYLLL (peptide)
peptide: Ac-AANNYLLL
B44: AANMSLLL (peptide)
peptide: Ac-AANMSLLL
B45: AANYLLLL (peptide)
peptide: Ac-AANYLLLL
B46: AANYVLLL (peptide)
peptide: Ac-AANYVLLL
B47: AANYILLL (peptide)
peptide: Ac-AANYILLL
B48: AANMYLLL (peptide)
peptide: Ac-AANMYLLL
B49: AIRGHLMG (peptide)
peptide: Ac-AIRGHLMG
B50: AIRVHLMG (peptide)
peptide: Ac-AIRVHLMG
B51: NSLSWHLL (peptide)
peptide: Ac-NSLSWHLL
B52: NNSWSLHL (peptide)
peptide: Ac-NNSWSLHL

target: T1, native human ESRRG protein (Estrogen-receptor related receptor gamma) (human, UniProt P62508 229-458, limits assumed); assay: peptide microarray, Iteration 2; bound ESRRG detected with fluorescent anti-ESRRG mAb
T1 construct: the screened protein is called 'native human ESRRG protein'; also called ESSRG; ERRγ
T1 sequence (looked up): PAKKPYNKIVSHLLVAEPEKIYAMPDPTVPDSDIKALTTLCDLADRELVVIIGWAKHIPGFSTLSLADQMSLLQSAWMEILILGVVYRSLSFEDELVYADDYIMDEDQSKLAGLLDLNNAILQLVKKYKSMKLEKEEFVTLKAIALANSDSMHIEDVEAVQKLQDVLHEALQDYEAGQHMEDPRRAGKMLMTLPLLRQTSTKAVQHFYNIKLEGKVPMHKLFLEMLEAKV
Description: (§1) Screening was carried out typically by hybridization of the protein (1 μg/mL) against the array for 1 h at 4° C.; detection of bound protein was carried out using a fluorescently labeled anti-ESRRG mAb. (Direct labeling of ESRRG and alternative detection strategies are equally valid).
Iterative sequence expansion and arraying of 10 highest binding ligands to ESRRG from Iteration 1 was carried out and the new peptide sequences were synthesized on an array and screened against the protein, as described above. In this step, the central 2 amino acids (core) in peptide sequences were maintained unchanged while outlying amino acids (2, 3, 6, and 7) were permuted (using Tier 1 and Tier 3 substitutions) in a ‘cipher’ or ‘combination’ lock approach.

Row | Sample B (Probe) Signal | log2 (Sample B/Sample A) | Binder
1 | 1560 fluorescence intensity units | 2.63 | B1
2 | 1800 fluorescence intensity units | 2.37 | B2
3 | 1460 fluorescence intensity units | 2.66 | B3
4 | 2530 fluorescence intensity units | 3.05 | B4

target: T1, native human ESRRG protein …; assay: custom peptide microarray density chip

Row | Kd | Binder
5 | 27.4 nM | B1
6 | 27.4 nM | B2
7 | 15.4 nM | B5
8 | 17.5 nM | B6
9 | 12.5 nM | B7
10 | 15.7 nM | B8
11 | 16.1 nM | B9
12 | 7.88 nM | B10
13 | 15.6 nM | B11
14 | 18.9 nM | B12
15 | 30.5 nM | B13
16 | 28.9 nM | B14
17 | 24.7 nM | B15
18 | 9.16 nM | B3
19 | 17.9 nM | B16
20 | 24.4 nM | B17
21 | 20.7 nM | B18
22 | 18.3 nM | B19
23 | 26.7 nM | B20
24 | 13.8 nM | B21
25 | 19.3 nM | B22
26 | 29.1 nM | B4
27 | 29.4 nM | B23

target: T1, native human ESRRG protein …; assay: peptide microarray, Iteration 1; bound ESRRG detected with fluorescent anti-ESRRG mAb
Description: as §1
Daughter candidate ligands and their new Tier 3 and/or Tier 1 based combinations were synthesized in situ on an addressable peptide microarray and screened against native human ESRRG protein in order to determine sequences that bind to this protein. Bound protein was detected by a fluorescently labeled anti-ESRRG mAb. […] Excess (100×) competing biological matrices (human serum, HSA/BSA or bacterial protein extract) were used as backgrounds to select for specific ligands to the protein. Other competing proteins can be added to background for specificity selection and directed evolution of ligands.

Row | Sample B (Probe) Signal | log2 (Sample B/Sample A) | Binder
28 | 622 fluorescence intensity units | 6.48 | B24
29 | 794 fluorescence intensity units | 9.63 | B7
30 | 701 fluorescence intensity units | 9.45 | B8
31 | 745 fluorescence intensity units | 5.64 | B25
32 | 868 fluorescence intensity units | 4.95 | B26
33 | 1610 fluorescence intensity units | 5.26 | B27
34 | 1820 fluorescence intensity units | 4.87 | B28
35 | 955 fluorescence intensity units | 9.9 | B29
36 | 1260 fluorescence intensity units | 5.97 | B30
37 | 1540 fluorescence intensity units | 5.03 | B31
38 | 1150 fluorescence intensity units | 7.29 | B32
39 | 1010 fluorescence intensity units | 5.42 | B33
40 | 1670 fluorescence intensity units | 4.88 | B34
41 | 1720 fluorescence intensity units | 5.04 | B35
42 | 2000 fluorescence intensity units | 4.92 | B36
43 | 1220 fluorescence intensity units | 5.82 | B37
44 | 1010 fluorescence intensity units | 5.05 | B38

Row | Sample B (Probe) Signal | log2 (Sample B/Sample A) | Binder
45 | 818 fluorescence intensity units | 5.11 | B39
46 | 7390 fluorescence intensity units | 6.38 | B40
47 | 863 fluorescence intensity units | 6.58 | B41
48 | 856 fluorescence intensity units | 5.36 | B17
49 | 14800 fluorescence intensity units | 7.65 | B18
50 | 9220 fluorescence intensity units | 10.8 | B19
51 | 1190 fluorescence intensity units | 5.52 | B42
52 | 3440 fluorescence intensity units | 6.78 | B43
53 | 1220 fluorescence intensity units | 6.16 | B44
54 | 3760 fluorescence intensity units | 7.4 | B45
55 | 2200 fluorescence intensity units | 7.22 | B46
56 | 2010 fluorescence intensity units | 7.19 | B47
57 | 4010 fluorescence intensity units | 5.95 | B48
58 | 935 fluorescence intensity units | 5.63 | B49
59 | 690 fluorescence intensity units | 5.87 | B50
60 | 1040 fluorescence intensity units | 5.34 | B51
61 | 729 fluorescence intensity units | 4.95 | B52
